± gives the uncertainty stated by the source.
Test: protein stability index of a GFP-peptide fusion (yeast GPS) (PSI 1-4); higher = more stable; sorted into four equal gates, so the index is relative within each strain
Summary of the method: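 Tiled 17-residue yeast protein peptides were fused downstream of GFP in a plasmid that also expresses Cherry, and the pooled library was carried in yeast. Mid-log cultures in leucine-free medium were sorted into four equal gates by GFP/Cherry fluorescence ratio, and plasmids from each gate were PCR-amplified and Illumina-sequenced, with reads assigned to strains by barcodes. The protein stability index for each peptide was each gate's read frequency times its gate number, summed.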

| Sequence | protein stability index (doa10∆) | protein stability index (pdr5∆) | protein stability index (san1∆) | protein stability index (ubr1∆) |
| --- | --- | --- | --- | --- |
| YQISAYQTRARQKARTD [RPR2] | 2.19 ± 0.027 | 2.31 ± 0.026 | 2.36 ± 0.031 | 2.407 ± 0.023 |
| RSDGMGNVLLNATVVDS [YLR335W/NUP2] | 3.44 ± 0.15 | 3.15 ± 0.099 | 3.29 ± 0.099 | 3.15 ± 0.093 |
| TAVKQGVTSLGIKATNG [PRE8] | 2.41 ± 0.065 | 2.06 ± 0.055 | 1.87 ± 0.072 | 1.71 ± 0.083 |
| PKASSAKFFLNVSDEQL [ITC1] | 3.1 ± 0.094 | 3.18 ± 0.055 | 3.17 ± 0.063 | 3.23 ± 0.075 |
| AYLLLVQGGNAAPSAAD [RPP2B] | 1.84 ± 0.05 | 1.98 ± 0.038 | 1.96 ± 0.062 | 2.45 ± 0.061 |
| SMNVTLGVPRIKEIINA [RPO31] | 2.71 ± 0.066 | 2.56 ± 0.048 | 2.13 ± 0.065 | 2.47 ± 0.046 |
| VEGPKFTIDAKPPISDS [YLR335W/NUP2] | 3.31 ± 0.048 | 3.47 ± 0.058 | 3.29 ± 0.048 | 3.36 ± 0.046 |
| FLKKNIIKENVKVARLA [FAS1] | – | 1.56 ± 0.26 | – | – |
| GEHISAIVPGQSISGTL [SWP82] | 3.41 ± 0.15 | 3.05 ± 0.13 | 2.97 ± 0.17 | – |
| DTLKLRENLHILNEVFT [RRP6] | 2.26 ± 0.092 | 2.87 ± 0.06 | 2.59 ± 0.058 | 2.4 ± 0.051 |
| MPGGYFHSEISPDSTVN [YAR002W/NUP60] | 2.56 ± 0.076 | 3 ± 0.095 | 2.54 ± 0.061 | 2.76 ± 0.063 |
| TEKLSNGFSFTKFNHNK [YOR098C/NUP1] | 3.02 ± 0.089 | 3.14 ± 0.064 | 3.02 ± 0.037 | 2.94 ± 0.063 |
| ARDEILPLRLQFNEFIQ [PGD1] | 2.55 ± 0.083 | 3.01 ± 0.065 | 2.74 ± 0.078 | 2.79 ± 0.058 |
| DDDDDDDDEVDYSEIQR [DSN1] | 2.98 ± 0.067 | 3.49 ± 0.087 | 3.41 ± 0.044 | 3.16 ± 0.084 |
| MGAINNNIPSLTSFAEE [SNF6] | 3.2 ± 0.13 | 3.43 ± 0.1 | 3.37 ± 0.15 | 3.35 ± 0.1 |
| TSAASGDAAPAEEAAAE [RPP0] | – | 3.44 ± 0.13 | 3.13 ± 0.14 | 3.34 ± 0.11 |
| IDEIDAIGTKRYDSNSG [RPT2] | – | 2.26 ± 0.14 | 2.36 ± 0.087 | 2.92 ± 0.19 |
| MNKIFTIFKSGEIDFIK [YML103C/NUP188] | 2.51 ± 0.091 | 2.62 ± 0.054 | 2.41 ± 0.075 | 2.59 ± 0.06 |
| APLVLLSALDHYERTQT [RPN8] | 2.45 ± 0.051 | 2.45 ± 0.053 | 2.39 ± 0.057 | 2.42 ± 0.039 |
| NPHDTLNRIKKYLLTQR [PRP8] | 2.22 ± 0.095 | 2.14 ± 0.08 | 2.25 ± 0.11 | 2.27 ± 0.15 |
| EGDIQVLKSYGAAPYAA [RPT1] | 2.84 ± 0.095 | 2.83 ± 0.12 | 3.05 ± 0.082 | 2.82 ± 0.063 |
| FRKKRKFELGRQPANTK [RPS8A] | 2.88 ± 0.063 | 3.12 ± 0.066 | 3.13 ± 0.082 | 3.16 ± 0.065 |
| VQGKNLLTNFHGMDFTT [RPS1A] | 3.42 ± 0.078 | 3.42 ± 0.055 | 3.22 ± 0.045 | 3.23 ± 0.052 |
| LKTDGVRAVSITSFGFG [FAS2] | 1.44 ± 0.067 | 2.15 ± 0.099 | 1.5 ± 0.11 | 1.41 ± 0.05 |
| KGIDSVVRRRFRGNISQ [RPL32] | 2.82 ± 0.14 | 2.94 ± 0.26 | – | 2.89 ± 0.12 |
| ISVSSRSDREYPLLIRM [SRP14] | 2.56 ± 0.097 | 2.44 ± 0.1 | 1.94 ± 0.13 | 2.34 ± 0.072 |
| RVSHSDTNSSKPKNTKE [SIR4] | – | 3.08 ± 0.26 | – | – |
| GINKIPPKPRKVLQLLR [RPL7A] | 3.06 ± 0.087 | 3.15 ± 0.11 | 3.22 ± 0.061 | 3.15 ± 0.069 |
